T1: Escherichia coli 2,3-aminomutase (P39280 protein) (Escherichia coli, UniProt P39280)
T1 sequence (P39280 whole entry, looked up): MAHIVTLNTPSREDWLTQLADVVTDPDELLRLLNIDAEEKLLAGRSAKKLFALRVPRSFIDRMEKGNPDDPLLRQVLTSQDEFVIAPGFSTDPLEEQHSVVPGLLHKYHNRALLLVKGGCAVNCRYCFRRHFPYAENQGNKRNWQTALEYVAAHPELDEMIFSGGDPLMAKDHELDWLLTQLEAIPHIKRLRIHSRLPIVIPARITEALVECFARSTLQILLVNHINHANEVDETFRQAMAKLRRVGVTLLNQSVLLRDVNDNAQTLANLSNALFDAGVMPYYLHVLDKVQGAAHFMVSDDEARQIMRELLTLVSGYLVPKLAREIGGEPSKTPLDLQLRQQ

B1: purified recombinant produced lysine 2,3-aminomutase: Clostridial lysine 2,3-aminomutase expressed in E. coli and purified (protein, UniProt Q9XBQ8 1-416, looked up)
L-lysine 2,3-aminomutase: MINRRYELFKDVSDADWNDWRWQVRNRIETVEELKKYIPLTKEEEEGVAQCVKSLRMAITPYYLSLIDPNDPNDPVRKQAIPTALELNKAAADLEDPLHEDTDSPVPGLTHRYPDRVLLLITDMCSMYCRHCTRRRFAGQSDDSMPMERIDKAIDYIRNTPQVRDVLLSGGDALLVSDETLEYIIAKLREIPHVEIVRIGSRTPVVLPQRITPELVNMLKKYHPVWLNTHFNHPNEITEESTRACQLLADAGVPLGNQSVLLRGVNDCVHVMKELVNKLVKIRVRPYYIYQCDLSLGLEHFRTPVSKGIEIIEGLRGHTSGYCVPTFVVDAPGGGGKTPVMPNYVISQSHDKVILRNFEGVITTYSEPINYTPGCNCDVCTGKKKVHKVGVAGLLNGEGMALEPVGLERNKRHVQE
B2: P39280-protein: E. coli polypeptide, SEQ ID NO: 4, distant homologue of lysine 2,3-aminomutase from Cl. subterminale (protein, listed as Escherichia coli)
chain: MAHIVTLNTPSREDWLTQLADVVTDPDELLRLLNIDAEEKLLAGRSAKKLFALRVPRSFIDRMEKGNPDDPLLRQVLTSQDEFVIAPGFSTDPLEEQHSVVPGLLHKYHNRALLLVKGGCAVNCRYCFRRHFPYAENQGNKRNWQTALEYVAAHPELDEMIFSGGDPLMAKDHELDWLLTQLEAIPHIKRLRIHSRLPIVIPARITEALVECFARSTLQILLVNHINHANEVDETFRQAMAKLRRVGVTLLNQSVLLRDVNDNAQTLANLSNALFDAGVMPYYLHVLDKVQGAAHFMVSDDEARQIMRELLTLVSGYLVPKLAREIGGEPSKTPLDLQLRQQ

Tests used:
[1] = molecular target: T2, Clostridial lysine 2,3-aminomutase (Clostridium subterminale, UniProt Q9XBQ8); assay: Lysine 2,3-aminomutase activity, conversion of C-14 L-α-lysine to L-β-lysine (paper electrophoresis); assay type: biochemical, Clostridium subterminale SB4; settings: purified recombinant produced enzyme
T2 construct: made in house; host or cells: E. coli BL21(DE3) with pET-23a(+) (lysine 2,3-aminomutase gene) and pAlter-Ex2 (dnaY gene)
Procedure: Aerobically grown E. coli cells (1 ml) containing the pET 23a(+) plasmid vector with the Clostridial lysine 2,3-aminomutase gene and the p-Alter-EX2 plasmid vector with the E. coli dnaY gene were used to seed a glass fermentor (Virtis Laboratory Fermentor #233395, Virtis Corporation, Gardiner, N.Y.) containing 15 liters of 2×YT media (240 gm Difco Bactotryptone, 150 gm Bacto yeast extract, […], Difco Laboratories, Detroit, Mich.) and supplemented with 50 μM Fe(II)SO4, 50 μM ZnSO4, 50 μM Na2S, 4 mM sodium thioglycolate, 100 μg/ml ampicillin, and 10 μg/ml tetracycline. The sealed flask was made anaerobic by gentle bubbling of nitrogen gas for 3 hours prior to cell inoculation. Anaerobicity was monitored by the presence of a small quantity of methylene blue (10 mg) which remains colorless in the absence of oxygen. After approximately 14 hours anaerobic culture at 37° C. when the cell density had reached 0.05 OD (optical density) at 600 nm, 0.2% (w/v) D-(+) glucose was added. […]
The supernatant was used to measure L-β-lysine formation according to the procedure of Ballinger et al. Biochemistry 31:10782 (1992). […] The mixture was spotted onto chromatography paper (Whatman #3001917, Whatman, LTD, Maidstone, England), the amino acids separated by electrophoresis and radioactivity measured according to the published procedure. […]

[2] = molecular target: T1, Escherichia coli 2,3-aminomutase (P39280 protein); assay: Lysine 2,3-aminomutase activity of E. coli P39280 protein, HPLC of PITC derivatives; assay type: biochemical; settings: L-lysine 44 mM, 37° C. for 60 min
Procedure: Lysine 2,3-aminomutase activity was measured with the Escherichia coli 2,3-aminomutase (P39280 protein) as described for alanine 2,3-aminomutase (see Example 5) with the following exceptions: P39280 protein, (25.4 μM-subunit); S-(5′-adenosyl)-L-methionine 90 μM; sodium hydrosulfite 2.3 mM; L-lysine 44 mM. The reaction was conducted at 37° C. for 60 min. The HPLC gradient established was 0-10% Buffer B in 35 min, 10-30% Buffer B in 35 min, 30-55% Buffer B in 35 min, and 55-100% Buffer B in 20 min. The PITC derivative of L-lysine eluted at a retention time of 101 min whereas the PITC derivative of β-lysine eluted at 95.6 min.

| Molecule | enzyme activity [1] | 2,3-aminomutase activity toward L-lysine [2] |
| --- | --- | --- |
| B1 | 34.5±1.6 μmoles lysine min^1 mg^−1 protein | – |
| B2 | – | does display 2,3-aminomutase activity |
